This passage reports Ka and Kd results from paper PMC7653264 (2020).

In assay [1] the target is T1, GST-PCNA (UniProt P12004 1-261). The assay is described as follows: ITC.
Assay [2] deals with T1, GST-PCNA. Kind of assay: ITC. This is another data set of the same source.

T1 sequence (P12004 whole entry): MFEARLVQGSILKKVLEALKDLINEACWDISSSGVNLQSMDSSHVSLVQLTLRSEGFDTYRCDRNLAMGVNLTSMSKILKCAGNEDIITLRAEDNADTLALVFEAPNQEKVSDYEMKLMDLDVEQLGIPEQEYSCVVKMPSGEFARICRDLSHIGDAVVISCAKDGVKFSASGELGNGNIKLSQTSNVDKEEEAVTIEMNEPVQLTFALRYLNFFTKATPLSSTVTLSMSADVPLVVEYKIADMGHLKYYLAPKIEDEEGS

On to AQDFKTDLR [H3K79me0 peptide (amino acids H3 75-83)], for which the Ka with GST-PCNA [1] was 1.16e+06 M⁻¹. The molecule further returned a Kd with GST-PCNA [2] of 1330 nM.
